Results published in patent publication US20140223606, “COMPOSITIONS AND METHODS COMPRISING SEQUENCES HAVING MEGANUCLEASE ACTIVITY” (PIONEER HI BRED INTERNATIONAL INC, published 2014).

Key:
Test in all cases: cell_activity; yeast 30 C; 22 C: 0
Details in all cases: tags: NLS, 6xHis
LIG3-4(B38) = biological target: T1, LIG3-4(B38) (artificial)
T1 chain: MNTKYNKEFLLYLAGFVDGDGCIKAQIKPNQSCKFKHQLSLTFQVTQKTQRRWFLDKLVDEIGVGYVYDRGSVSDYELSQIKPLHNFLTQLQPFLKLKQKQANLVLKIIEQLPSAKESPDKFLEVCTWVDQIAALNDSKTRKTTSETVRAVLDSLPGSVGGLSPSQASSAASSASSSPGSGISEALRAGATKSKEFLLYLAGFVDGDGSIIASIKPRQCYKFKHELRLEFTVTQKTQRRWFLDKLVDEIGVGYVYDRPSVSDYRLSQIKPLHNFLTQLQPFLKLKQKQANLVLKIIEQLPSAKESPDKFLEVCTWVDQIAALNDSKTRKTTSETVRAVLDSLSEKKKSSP
Experimental: (§1) A 3 mL culture of selective media (MP Biomedical) was inoculated with a single colony of the yeast screening strain and grown at 30° C. overnight. On the following day, a 50 ml YPD culture (MP Biomedical) was started with 2 ml of the overnight culture and grown at 30° C. overnight. On the following day, the cells were harvested by centrifugation at 4000 rpm. The cells were resuspended in 100 ml ice cold water and centrifuged again. The cells were then washed in 1.2 M sorbitol, followed by treatment with 2 ml of 10 mM Tris pH 8.0, 1 mM EDTA, 100 mM Lithium acetate, 10 mM DTT, 0.6M sorbitol for 30 minutes at 30° C. with shaking. The cells were recovered by centrifugation, washed in 40 ml 1.2M sorbitol and finally resuspended in 250 microliters of 1.2M sorbitol. 50 microliter aliquots were transferred to test tubes on ice. Up to 5 microliters of DNA (100-500 nanograms) were added. The suspension was transferred to a 0.2 cm electroporation cuvette, on ice. Electroporation was performed with a pulse charge at 1.5 kV, 200 ohms, 25 microF (pulse time of 5 milliseconds). 1 mL YPD media (MP Biomedical) was added and the cells were allowed to recover at 30° C. for 1-2 hr. The cells were centrifuged, resuspended in 100 uL 1M sorbitol and plated on selective media lacking leucine and containing 2% galactose. The resulting yeast colonies were incubated at various temperatures ranging from 22 to 37 degrees Celsius for 7-10 days. I-CreI and meganucleases derived from it have maximal activity at or above 37 degrees Celsius. Screening was performed at a range of temperatures from 22 to 37 degrees in order to observe increases in activity at lower temperatures which are relevant to certain biological systems (eg. plant cells, plant cell cultures, etc). At that time the red/white sectoring phenotype, indicative of meganuclease activity was observed. Colonies with increased white sectoring over the parental meganuclease (indicating colonies expressing a meganuclease with increased meganuclease activity), also referred to as “hits” and sometimes completely white, were isolated for further analysis.

LIG3-4(B36) = biological target: T2, LIG3-4(B36) (artificial)
T2 chain: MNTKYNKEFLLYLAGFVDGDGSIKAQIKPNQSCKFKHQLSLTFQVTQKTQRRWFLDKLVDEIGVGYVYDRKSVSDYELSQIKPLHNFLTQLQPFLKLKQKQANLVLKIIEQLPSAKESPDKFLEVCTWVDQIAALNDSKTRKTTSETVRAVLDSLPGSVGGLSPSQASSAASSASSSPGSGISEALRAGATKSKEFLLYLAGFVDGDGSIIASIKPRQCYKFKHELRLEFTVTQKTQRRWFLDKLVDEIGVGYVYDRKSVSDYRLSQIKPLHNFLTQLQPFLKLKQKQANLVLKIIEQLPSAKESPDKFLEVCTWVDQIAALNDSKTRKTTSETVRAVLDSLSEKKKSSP
Experimental: as §1

LIG3-4(B40) = biological target: T3, LIG3-4(B40) (artificial)
T3 chain: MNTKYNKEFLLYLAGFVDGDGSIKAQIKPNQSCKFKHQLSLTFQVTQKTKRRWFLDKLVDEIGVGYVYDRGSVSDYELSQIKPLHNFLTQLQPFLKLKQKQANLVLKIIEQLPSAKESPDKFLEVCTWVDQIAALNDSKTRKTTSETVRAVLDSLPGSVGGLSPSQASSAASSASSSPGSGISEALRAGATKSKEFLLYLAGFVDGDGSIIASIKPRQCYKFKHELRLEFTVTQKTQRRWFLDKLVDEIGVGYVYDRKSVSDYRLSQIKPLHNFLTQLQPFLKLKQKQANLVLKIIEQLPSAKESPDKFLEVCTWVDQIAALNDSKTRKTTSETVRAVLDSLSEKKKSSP
Experimental: as §1

LIG3-4(B24) = biological target: T4, LIG3-4(B24) (artificial)
T4 chain: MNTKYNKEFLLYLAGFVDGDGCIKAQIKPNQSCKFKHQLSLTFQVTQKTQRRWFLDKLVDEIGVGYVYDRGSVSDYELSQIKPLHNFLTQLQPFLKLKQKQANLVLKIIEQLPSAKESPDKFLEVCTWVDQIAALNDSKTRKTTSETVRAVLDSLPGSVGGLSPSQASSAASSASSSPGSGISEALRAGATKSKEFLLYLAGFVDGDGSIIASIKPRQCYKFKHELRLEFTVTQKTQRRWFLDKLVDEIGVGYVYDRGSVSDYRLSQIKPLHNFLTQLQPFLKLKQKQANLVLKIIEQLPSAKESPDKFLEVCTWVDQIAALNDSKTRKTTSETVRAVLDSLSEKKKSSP
Experimental: as §1

LIG3-4(A4) = biological target: T5, LIG3-4(A4) (artificial)
T5 chain: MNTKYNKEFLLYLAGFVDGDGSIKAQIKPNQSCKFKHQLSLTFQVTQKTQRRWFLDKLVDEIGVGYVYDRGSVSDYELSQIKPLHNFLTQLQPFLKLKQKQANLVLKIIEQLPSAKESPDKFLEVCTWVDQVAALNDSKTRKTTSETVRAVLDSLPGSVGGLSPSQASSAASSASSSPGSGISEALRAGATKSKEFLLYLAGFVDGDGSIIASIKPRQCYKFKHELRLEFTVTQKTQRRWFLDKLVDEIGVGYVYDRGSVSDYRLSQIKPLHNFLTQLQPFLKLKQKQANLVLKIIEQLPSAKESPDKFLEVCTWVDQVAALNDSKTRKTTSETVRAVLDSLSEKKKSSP
Experimental: as §1

B1: LIG3-4 recognition site (dsDNA)
DNA 1: ATATACCTCACACGTACGCGTA
DNA 2: TACGCGTACGTGTGAGGTATAT
LIG3-4(B38)
  activity: 4 score 0-4
LIG3-4(B36)
  activity: 4 score 0-4
LIG3-4(B40)
  activity: 4 score 0-4
LIG3-4(B24)
  activity: 4 score 0-4
LIG3-4(A4)
  activity: 3.5 score 0-4
